Target: the molecule itself
Experiment: crystal structure; seleno-methionine-labeled BACINT_01033-CE1, 20 mg/ml in 50 mM Tris pH 7.5, 150 mM NaCl; sitting drop, room temperature; P3_(1)21 form from 0.1 M BIS-Tris pH 6.5, 20% PEG 1,500; dimer in the asymmetric unit

B1: BACINT_01033-CE1 (carbohydrate esterase family 1, ferulic acid esterase) (enzyme, Bacteroides intestinalis DSM 17393)
chain: QQQDFPAGTTPNEHNINGADYPRIGEDRRVHFRIHAPNAQKVEISFRGEMTKEADGYWSLVSKEPEVIGFHYYQVIIDGVSAADPNGKPFFGMGKWVSGIEIPEKGVDYYSIKNVPHGLISQSWYYSDIRKEWRRCIVYTPAEYDKNPTKKYPVLYLQHGMGENETSWANQGKMNFIMDNLIAEGKAKPMIVVMDNGNIEVFKTNSGETPEDARKRFGAEFPAILVNEIIPHIESNFRTLTDRDNRAMAGLSWGGLLTFNTTLNNLDKFAYIGGFSGAGSIDLKQLDTVYGGVFKNRKAFNDKVHVFFLGIGSEEHPERTKNLSDGLQAAGINTIYYESPGTAHEFLTWRRCLKEFAPLLFKTK
modifications: seleno-methionine-labeled
notes: BACINT_01033-CE1 of Bacteroides intestinalis DSM 17393; N-terminal Ig-like fold of ~100 residues followed by the esterase domain (residues 126-383); predicted signal peptide; Cloned NdeI/XhoI into pET-28a; also called Bi1033-CE1; Bi1033; source: E. coli BL21 (DE3), seleno-methionine-labeled, purified (HisTrap, Superdex 200)
Question: How did the “stoichiometry N” value turn out when B1 was run?
Answer: 2

Source: paper PMC7815789, “Degradation of complex arabinoxylans by human colonic Bacteroidetes” (Nature Communications, 2021)
